Data from patent US20030054360.

Key:
UGT 1A10 = molecular target: T1, UGT 1A10 (UniProt Q9HAW8); test: filter; conditions: 5-BrdU replaces T; apparent photocrosslink KD; plateau 72%
T1 sequence: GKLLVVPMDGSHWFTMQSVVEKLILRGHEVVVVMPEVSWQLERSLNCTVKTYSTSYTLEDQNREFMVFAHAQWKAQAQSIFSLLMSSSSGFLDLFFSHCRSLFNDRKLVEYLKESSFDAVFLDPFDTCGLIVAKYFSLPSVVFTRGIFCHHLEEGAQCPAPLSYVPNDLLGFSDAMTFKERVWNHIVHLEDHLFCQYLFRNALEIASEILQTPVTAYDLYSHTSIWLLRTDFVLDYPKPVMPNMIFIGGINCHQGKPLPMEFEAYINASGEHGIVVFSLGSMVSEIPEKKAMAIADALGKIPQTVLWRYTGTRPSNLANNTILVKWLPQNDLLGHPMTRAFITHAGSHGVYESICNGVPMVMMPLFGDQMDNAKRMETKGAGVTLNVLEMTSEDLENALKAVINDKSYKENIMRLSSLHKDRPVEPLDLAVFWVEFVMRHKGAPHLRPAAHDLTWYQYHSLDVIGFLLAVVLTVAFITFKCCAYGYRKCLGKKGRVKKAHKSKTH

Interleukin-4 = molecular target: T2, Interleukin-4 (UniProt P05112); conditions: 5-BrdU replaces T; photocrosslinking rate at 25 nM target; KD printed as ??
T2 sequence: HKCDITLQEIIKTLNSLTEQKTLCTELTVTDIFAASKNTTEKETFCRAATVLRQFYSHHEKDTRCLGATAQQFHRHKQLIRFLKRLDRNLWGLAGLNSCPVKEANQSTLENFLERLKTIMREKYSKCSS

UGT 1A3 = molecular target: T3, UGT 1A3 (UniProt P35503); test: filter; conditions: 5-BrdU replaces T; apparent photocrosslink KD; plateau 70%
T3 sequence: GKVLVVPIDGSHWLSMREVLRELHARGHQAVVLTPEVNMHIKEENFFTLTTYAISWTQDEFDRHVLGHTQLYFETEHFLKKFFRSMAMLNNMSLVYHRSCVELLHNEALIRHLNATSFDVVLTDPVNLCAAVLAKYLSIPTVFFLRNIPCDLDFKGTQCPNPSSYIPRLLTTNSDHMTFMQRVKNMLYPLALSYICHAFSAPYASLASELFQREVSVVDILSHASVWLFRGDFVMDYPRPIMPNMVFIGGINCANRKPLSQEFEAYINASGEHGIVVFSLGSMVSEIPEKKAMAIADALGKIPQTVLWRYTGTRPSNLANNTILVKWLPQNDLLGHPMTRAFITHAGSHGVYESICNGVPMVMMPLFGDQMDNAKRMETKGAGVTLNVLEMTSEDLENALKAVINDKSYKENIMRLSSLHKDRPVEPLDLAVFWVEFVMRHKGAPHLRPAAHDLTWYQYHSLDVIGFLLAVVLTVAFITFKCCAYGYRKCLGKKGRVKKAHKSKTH

## ATATATATGGGAGGACGATGCGGCACCACTTCTTTACCTCACTCTTTCTGCAGCAGACGACGAGCGGGAAAAAAAA [UGT 1A10 pool 140 clone 45]
UGT 1A10
  Kd: 2.1 nM

## ATATATATGGGAGGACGATGCGGGCACAGGTTCTATCAACGTTGTCCTGAGTAATTGACCTGCAGACGACGAGCGGGAAAAAAAA [IL-4 pool 012 clone 63]
Interleukin-4
  photocrosslinking rate: 0.71 J-1 cm2

## ATATATATGGGAGGACGATGCGGGCCGACTTTGTCACCGAGTGCATCCGAGGTCAGACGACGAGCGGGAAAAAAAA [UGT 1A3 pool 141 clone 53]
UGT 1A3
  Kd: 3.9 nM
